{"source": "patent US20130028895A1", "about": "“EXOSOME INHIBITING AGENTS AND USES THEREOF” (priority 2011, published 2013)", "molecules": {"B1": {"name": "anti-ABCA3 shRNA: lentiviral shRNA silencing ABCA3, sequences SEQ ID NO: 1 and SEQ ID NO: 2 cloned into pLKO.1 (nucleic acid)", "chain 1": "CCGGGCCCAGCTCATTGGGAAATTTCTCGAGAAATTTCCCAATGAGCTGGGCTTTTTG", "chain 2": "AATTCAAAAAAAATTTCCCAATGAGCTGGGCCTCGAGGCCCAGCTCATTGGGAAATTT", "modifications": "the letters are possibly those of the target site"}}, "key": {"[1]": {"tested_on": "OCI-Ly1 lymphoma cells", "experiment": "Inhibition of exosome shedding by inhibitors (AChE activity, flotillin-2 Western blot)", "assay_type": "cell-based, human", "conditions": "non-toxic dose ranges, 24 h", "protocol": "(§1) […] lymphoma cells were exposed to inhibitors of exosome synthesis or release at non-toxic dose ranges. Exosomes were harvested after a 24 h incubation period, and yields were measured by AChE activity (a) and detection of flotillin-2 by Western Blot (b). […] Significant differences to controls without inhibitors (one-way ANOVA with Dunn's post test) are marked with asterices, equivalent results were obtained for the cell lines Balm-3 and Su-DHL-4 (FIG. 10).\n5×10^7 lymphoma cells were exposed to inhibitors of exosome synthesis or release at non-toxic dose ranges. Exosomes were harvested after a 24 h incubation period, and yields were measured by AChE activity. Significant differences to controls without inhibitors (one-way ANOVA) are marked with asterices.\n(§2) Exosomes were prepared by differential centrifugation according to standard protocols (modified according to Valadi, H. et al. Nat. Cell Biol. 9, 654-659 (2007)). […] Exosomes were quantified by measuring whole protein according to standard protocols (BioRad-DC-Protein-Assay), Western blot detecting flotillin-2 in comparison with whole cells or control exosome preparations, and acetyl-cholin-esterase (AChE) activity as previously described (Savina, A., Fader, C. M., Damiani, M. T., & Colombo, M. I. Traffic. 6, 131-143 (2005))."}, "[2]": {"tested_on": "lymphoma cells", "experiment": "CDC susceptibility: inhibitors plus rituximab with 10% active human complement", "assay_type": "cell-based", "conditions": "concomitant incubation with rituximab", "protocol": "as §1\n(§3) After 24 hours at 37° C., cell viability was determined in triplicates by […] staining as described before. The effect on viability was expressed as the ratio of values from treated versus untreated samples, i.e. specific viability=100× absorbance with antibody treatment/absorbance of untreated control. To detect complement decomposition of C3 in supernatant of exosome coupled to beads, monoclonal antibody 13/15 was coated onto 96-well Medisorp plates (NUNC, Medisorp, Thermo Fisher Scientific) blocked, and washed. Subsequently, appropriately diluted supernatant of exosome:bead complex samples were added to the plate for 60 minutes, washed, and incubated with rabbit anti-C3d for 60 min. After washing, finally anti-rabbit Fc conjugated to horseradish peroxidase (anti-rFc-HRP) was added for 60 minutes, before a further washing and addition of TMB substrate solution. […]"}, "[3]": {"molecular_target": "T1, exosomal CD20 (Homo sapiens, UniProt P11836)", "T1 construct": "endogenous in cells; host or cells: exosomes purified from culture supernatants of Balm-3 and Su-DHL-4 lymphoma cells", "T1 sequence (P11836 1-297)": "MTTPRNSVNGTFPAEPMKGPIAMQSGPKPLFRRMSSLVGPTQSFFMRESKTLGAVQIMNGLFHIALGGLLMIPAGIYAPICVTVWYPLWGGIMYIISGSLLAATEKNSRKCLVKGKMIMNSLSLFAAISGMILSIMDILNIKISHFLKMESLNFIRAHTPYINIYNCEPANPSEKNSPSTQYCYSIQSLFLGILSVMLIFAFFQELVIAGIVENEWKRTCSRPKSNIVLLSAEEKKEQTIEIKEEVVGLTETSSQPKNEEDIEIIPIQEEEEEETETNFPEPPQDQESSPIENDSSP", "experiment": "Binding of therapeutic anti-CD20 antibodies to lymphoma exosomes (immunogold, Western blot, FACS of exosome-labelled beads)", "conditions": "purified exosome-labelled beads, Su-DHL-4", "method": "Cells or exosomes coupled to beads were stained with fluorescence-labelled monoclonal antibodies, and analyzed by flow cytometry.\nFACS analysis of exosomal surface proteins was carried out after exosomes were coupled to latex beads as previously described (Thery, C., Zitvogel, L., & Amigorena, S, Nat. Rev. Immunol. 2, 569-579 (2002)). Exosomes (40 μg protein) were incubated in 30 μl PBS with 4 μm aldehyde/sulfate latex beads (3 μl of a 4% w/v suspension, Invitrogen) for 15 min., and again for 2 h after addition of 500 μl PBS at room temperature (RT) under constant agitation. The reaction was stopped by addition of 100 μl 1M glycine for 30 min. at RT with gentle agitation, followed by three washes in PBS/0.5% w/v bovine serum albumin (BSA). Antibody staining followed the protocols for antibody staining of cells in suspension.\nDetection of membrane-bound fluorescence were performed using standard protocols for flow cytometry. 1×10^5 cells per condition were washed once with PBS and thereafter incubated for 30 min at room temperature and protected from light with either primary antibody or isotype control (both 1:50)."}, "[4]": {"tested_on": "ABCA3", "experiment": "Exosome release after silencing of ABCA3 by lentiviral shRNA", "assay_type": "cell-based, human", "protocol": "(§4) The effects were measured after incubation for 48 h by AChE activity (b, cell line Balm-3, significance tested by one-way ANOVA), whole exosomal protein (c, significance tested by Student's two-sample t-test), as well as flotillin-2 detection from exosome preparations in the cell culture supernatant (d). Addressing ABCA3 overexpression, 4×10^7 cells of HEK293A, the stable ABCA3 overexpressing cell line HEK293A-ABCA3, as well as K562 cells were incubated for 17 h in 36 ml of exosome-free cell culture medium, and exosome yields measured as total exosomal protein.\nAs small molecules were used at the concentrations indicated: mTOR inhibitor rapamycin, COX-2 inhibitor indometacin, cholesterol synthesis inhibitor U18666A (all from Sigma). As fluorescent dyes CalceinAM and PKH26 were applied (both from Molecular Probes). […]\nas §2"}, "[5]": {"tested_on": "lymphoma cell lines", "experiment": "CDC susceptibility after RNAi silencing of ABCA3", "assay_type": "cell-based, human", "conditions": "rituximab in the presence of complement, vs lv GFP control", "protocol": "as §4\nas §3, with “min.” for “min. After washing, finally anti-rabbit Fc conjugated to horseradish peroxidase (anti-rFc-HRP) was added for 60 minutes, before a further washing and addition of TMB substrate solution.”"}}}
{"molecule": "CCN(CC)CCO[C@H]1CC[C@@]2(C)C(=CC[C@@H]3[C@@H]2CC[C@]2(C)C(=O)CC[C@@H]32)C1", "note": "[U18666A]", "values": [{"measurement": "exosome shedding / release", "setting": "[1]", "value": "Inhibition of Exosome Shedding"}, {"measurement": "CDC susceptibility / cytolytic activity of rituximab", "setting": "[2]", "value": "Enhanced CDC Susceptibility"}]}
{"molecule": "GA101: therapeutic anti-CD20 monoclonal antibody (type II, Roche)", "values": [{"measurement": "exosomal binding by FACS", "setting": "[3]", "value": "Exosomal binding"}]}
{"molecule": "B1", "values": [{"measurement": "exosome release vs mock transfected controls", "setting": "[4]; 48 h, AChE activity, whole exosomal protein, flotillin-2, Balm-3", "value": "decreased exosome release"}, {"measurement": "reduction of exosome release", "setting": "[4]; Balm-3, Su-DHL-4 and OCI-Ly1", "value": "approximately 50%"}, {"measurement": "susceptibility to CDC", "setting": "[5]; listed as lentiviral RNAi", "value": "significantly increased the susceptibility of the lymphoma cells to CDC-mediated lysis"}, {"measurement": "susceptibility to CDC", "setting": "[5]; listed as shRNA against ABCA3", "value": "increased susceptibility of lymphoma cell lines to CDC"}]}
